This data set is described as follows: yeast display, Sf9 membrane polyspecificity reagent, FACS + sequencing; frameworks hold sequencing errors. Summed up:
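After 36–48 hours of galactose induction, yeast (Saccharomyces cerevisiae BJ5465) displaying a synthetic nanobody library were stained at 4 °C for 1 hour with 10% biotinylated, detergent-solubilized Sf9 membrane reagent. Streptavidin microbeads enriched the stained cells before FACS sorting into low and high (top ~1%) gates on anti-HA and streptavidin fluorescence. Each clone's polyreactivity label reflects its gate of origin.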
Turning to “QVQLVESGGGLVQAGGSLRLSCAASGSTFYSNAMGWYRQAPGKERELVAAISSTGSSTYYADSVKGRFTISRDNAKNTVYLQMNSLKPEDTAVYYCATDYYQSYWPATYDYWGQGTQVTVSS”, the “polyreactivity (PSR sort gate)” value is listed as “low polyreactivity”.

With “QVQLVESGGGLVQAGGSLRLSCAASGSTFYSNAMGWYRQAPGKERELVATISFRGGRTYYADSVKGRFTISRDNAMNTVYLQMNSLKPEDTAVYYCNAEVSGYPYTYGYRGQGTQVTVSS”, the “polyreactivity (PSR sort gate)” value is given as “low polyreactivity”.

Take “QVQLVESGGGLVQAGGSLRLSCAASGSTFYSNAMGWYRQAPRKERELVASISWSSGSTYYADSVKGRFTISRDNAKNTVYLQMNSLKPEDTAVYYCATDAGGPYRFGYWGQGTQVTVSS”: the “polyreactivity (PSR sort gate)” value was “low polyreactivity”.

With “QVQLVESGGGLVQAGGSLRLSCAASGSTFYSNVMGWYRQAPGKEREFVAGISGSGGSTYYADSVKGRFTISRDNAKNTVYLQMNSLKPEDTAVYYCAKYRYSRYFRYDYWGQCTQVTVSS”, the “polyreactivity (PSR sort gate)” value was “high polyreactivity”.

As for “QVQLVESGGGLVQAGGSLRLSCAASGSTFYSNVMGWYRQAPGKERELVAAISQSGGRTFYADSVKGRFTISRDNAKNTVYLQMNSLIPEDTAVYYGNYVRAQPRNPYDYWGQGTQVTVSS”, the “polyreactivity (PSR sort gate)” value was “high polyreactivity”.

“QVQLVESGGGLVQAGGSLRLSCAASGSTFYSYAMGWYRQAPGKERELVAAITTSGGSTYYADSVKGRFTISRDNAKNTVYLQMNSLKPEDTAVYYCAAYDLYWYEYWGQGTQVTVSS”: the “polyreactivity (PSR sort gate)” value is “low polyreactivity”.

“QVQLVESGGGLVQAGGSLRLSCAASGSTFYSYGMGWYRQAPGKERELVAAITEDGDTTYYADSVKGLYTISRDNAKNTVYLQMNSLKPEDTAVYYCAAETYYLDDYWGQATQVTVSS”: the “polyreactivity (PSR sort gate)” value was “high polyreactivity”.

As for “QVQLVESGGGLVQAGGSLRLSCAASGSTFYSYVMGWYRQAPGKERELVAVITSGGSTTYADSVKGRFTISRDNAKNTVYLQMNSLKPEDTAVYYCAKRNYLSYRYDYWGQGTQVTVSS”, the “polyreactivity (PSR sort gate)” value is reported as “low polyreactivity”.

Regarding “QVQLVESGGGLVQAGGSLRLSCAASGSTFYTNAMGWYRQAPGKERELVAAISYGGGSTYYADSVKGRFTISRDNAKNTVYLQMHSLKPEDTAVYYCAARAPEKSWWRYRYGYWGQGTQVTVSS”, the “polyreactivity (PSR sort gate)” value was “high polyreactivity”.

As to “QVQLVESGGGLVQAGGSLRLSCAASGSTFYTNAMGWYRQAPGKEREMVASITGGGSTYYADSVKGRFTISRDNAKNTVYLQMNSLKPEDTAVYYCDADNVGGGWEFDSWGQGTQVTVSS”, the “polyreactivity (PSR sort gate)” value is “low polyreactivity”.

Take “QVQLVESGGGLVQAGGSLRLSCAASGSTFYTYTMGWYRQAPGKERALVAAISSSGGDTYYADSVKGRFTISRDNAKNTVYLQMNSLKPEDTAVYYCAALGAFPSLEFDYWGQGTQVTVSS”: the “polyreactivity (PSR sort gate)” value is given as “low polyreactivity”.

As to “QVQLVESGGGLVQAGGSLRLSCAASGSTFYTYVMGWYRQAPGKERELVAAISSGGGNTYYADSVKGRFTISRDNAKYTVYLQMNSLKPEDTAVYYCAASHTSYYLRYGYWGQGTQVTVSS”, the “polyreactivity (PSR sort gate)” value is reported as “high polyreactivity”.

“QVQLVESGGGLVQAGGSLRLSCAASGSTFYVNAMGWYRPAPGKERELVAAITKSGGNTYYADSVKGRFTISRDNAKNTVYLQMNSLKPEDTAVYYCAAYKRYSSLTGYESWGQGTQVTVSS”: the “polyreactivity (PSR sort gate)” value is “high polyreactivity”.

Consider “QVQLVESGGGLVQAGGSLRLSCAASGSTFYVNAMGWYRQAPGKEREFVAAISWSGGSTYYADSVKGRFTISRDNAKNTVYLQMNSLKPEDTAVYYCAADRVRKDGVLFDYWGQGTQGTVSS”, for which the “polyreactivity (PSR sort gate)” value is on record as “high polyreactivity”.

Regarding “QVQLVESGGGLVQAGGSLRLSCAASGSTFYVNAMGWYRQAPGKERELVAAINSGGRTYYADSVKGRFTISRDNAKNTVYLQMNSLKPEDTAVYYCAAEVSYYLNEFDYWGQGTQVTVSS”, the “polyreactivity (PSR sort gate)” value is reported as “low polyreactivity”.

In the case of “QVQLVESGGGLVQAGGSLRLSCAASGSTFYVYAIGWYRHAPGKERELVADITYSDGGTFYADSVKGRFTISRDNAKTTVYLQMNSLKPEDTAGYYCATSYLWNYRGDIFDYWGQGTQVTVSS”, the “polyreactivity (PSR sort gate)” value is listed as “high polyreactivity”.

With “QVQLVESGGGLVQAGGSLRLSCAASGSTFYVYAMGWYRQAPGKERELVAAINFNGGGTYYADSVKGRFTISRDNAMNTVYLQMNSLKPEDTAFYYCNAEDDYTYDRSFGGYKYDYWGQGTQVTVSS”, the “polyreactivity (PSR sort gate)” value is “low polyreactivity”.

Turning to “QVQLVESGGGLVQAGGSLRLSCAASGSTFYVYAMGWYRQAPGKERELVATISSGGITNYADSVKGRFTISRDNAMNTVYLQMNSLKPEDTAVYYCNAKKAYYGRGMNYWGQGTQVTVSS”, the “polyreactivity (PSR sort gate)” value was “low polyreactivity”.

Regarding “QVQLVESGGGLVQAGGSLRLSCAASGSTFYVYAMGWYRQAPGKERELVAVIRYRGDRTYYADSVKGRFTISRDNAKNTVYLQMNSLKPEDTAVYYCAKEGFYKYYWGQGTQVTVSS”, the “polyreactivity (PSR sort gate)” value is reported as “high polyreactivity”.

Turning to “QVQLVESGGGLVQAGGSLRLSCAASGSTFYVYAMGWYRQAPGTERELVAAIDYSDGSTYYADSVKGRFTISRDNAKNTVYLQMNSRKPEDTAVYYCAADTVSWFEYYYWGQGTQVTVSS”, the “polyreactivity (PSR sort gate)” value was “high polyreactivity”.

“QVQLVESGGGLVQAGGSLRLSCAASGSTFYVYVMGGYRQAPGKERELVAAITSSGDITYYADSVKGRFTISRYNAKITVYLQMNSLIPEETAVYYCAASPFRRRYNGENDYWGQGTQVTGSS”: the “polyreactivity (PSR sort gate)” value is on record as “high polyreactivity”.

With “QVQLVESGGGLVQAGGSLRLSCAASGSTFYWYAMGWYRPAPGKERELVAAISSGADTSYADSVKGRFTISRDNAKNTVYLQMNSLKPEDTAVYYCARRYRARGSMYYWGQGTKVTVSS”, the “polyreactivity (PSR sort gate)” value is given as “high polyreactivity”.

As to “QVQLVESGGGLVQAGGSLRLSCAASGSTFYWYTMGWYRQAPGKEKELVARISSSGSTNYADSVKGRFTISRDNAKNTVYLQMNSLKPEDTAVYYCNKDWIYRGYDYWGQGTQVTVSS”, the “polyreactivity (PSR sort gate)” value is given as “high polyreactivity”.

For “QVQLVESGGGLVQAGGSLRLSCAASGSTFYYMGWSRQAPGKERELVAAITQSGGSTYYADSVKGRFTISRDNAKNTVYLQMNSLKPEDTAVYYCAARYASPRYKSKMDYWGQGTQVTVSS”, the “polyreactivity (PSR sort gate)” value is “high polyreactivity”.

“QVQLVESGGGLVQAGGSLRLSCAASGSTFYYNAMGWYRQAPGKERELVAAITFTGGSTYADSVKGRFTISRDNAKNTVYLQLNSLKPEDTAVYYCAATIQGHDYLGTGYDYWGQGTQVTVSS”: the “polyreactivity (PSR sort gate)” value was “low polyreactivity”.

As to “QVQLVESGGGLVQAGGSLRLSCAASGSTFYYNAMGWYRTAPGKERELVAVIDGSGGFTYYADSVKGRFTISRDNAKNTVYLQMNSLKPEDTAVYYCNADLVYNTFIFSGGDEYDYWGQGTQVTVSS”, the “polyreactivity (PSR sort gate)” value was “high polyreactivity”.

On to “QVQLVESGGGLVQAGGSLRLSCAASGSTFYYNTMGWYRQAPGKERELVAAISSGGSTNYADSVKGRFTISRDNAKNTVYLQMNSLKPEDTAVYYCAKRRGGALYAYRYYYWGQGTQVTVSS”, for which the “polyreactivity (PSR sort gate)” value is recorded as “high polyreactivity”.

In the case of “QVQLVESGGGLVQAGGSLRLSCAASGSTFYYNTMGWYRQAPGKERELVAAISWRGGSTYYADSVKGRFTISRDNAKNTVYLLMNSLKPVDTAVYYCAAGWYPRSVRPFESFVGLDYWGQGTQVTVSS”, the “polyreactivity (PSR sort gate)” value is on record as “high polyreactivity”.

As for “QVQLVESGGGLVQAGGSLRLSCAASGSTFYYYAMGCYRQAPGKERELVASITTGGGSTYYADSVKGRFTISRDNAKNTVYLQLNSLKPEDTAVYYCGAALAYYYWWYDYWGQCTQVTVSS”, the “polyreactivity (PSR sort gate)” value is “low polyreactivity”.

As for “QVQLVESGGGLVQAGGSLRLSCAASGSTFYYYAMGWYRPAPGKERELVAAISSSGGITYYADSVKGRFTISRDNAKNTVYLQMNSLKPEDTAVYYCAADVIVFYYGPNYWGDIGYGYWGQGTQVTVSS”, the “polyreactivity (PSR sort gate)” value is “low polyreactivity”.

For “QVQLVESGGGLVQAGGSLRLSCAASGSTFYYYAMGWYRQAPGKDRELVAAISKRDGRTYYADSVKGRFTISRDNAKNTVYLQMNSLKPEDTAVYYCNAYSYGHYYWGQGTQVTVSS”, the “polyreactivity (PSR sort gate)” value is “high polyreactivity”.

As to “QVQLVESGGGLVQAGGSLRLSCAASGSTFYYYAMGWYRQAPGKEMELVAAINWSGASTYYADSVKGRFTISRDNAKNTVYLQMNSLIPEDTAVYYCAAGYAGGYGVTFDYCGQGTQVTVSS”, the “polyreactivity (PSR sort gate)” value is listed as “low polyreactivity”.

In the case of “QVQLVESGGGLVQAGGSLRLSCAASGSTFYYYAMGWYRQAPGKEREFVAAITFRGGSTYYADSVKGRFTISRDNAKNTVYLQMNSLKPEDTAVYYCAAKPPFRNYVRYDYWGQGTQVTVSS”, the “polyreactivity (PSR sort gate)” value is “high polyreactivity”.

In the case of “QVQLVESGGGLVQAGGSLRLSCAASGSTFYYYAMGWYRQAPGKEREFVASISSRGTSTYYADSVKGRFTISRDHAKNTVYLQMNSMKPEDTAVYYCAARGWGPTRAYDYWGQGTQVTVSS”, the “polyreactivity (PSR sort gate)” value is “high polyreactivity”.

For the sequence “QVQLVESGGGLVQAGGSLRLSCAASGSTFYYYAMGWYRQAPGKERELFATINKNVGITYYADSVKGRFTISRDNAKNTVYLQRNSMKTEVTAVDYCAAHGRINPDGPRTVFFASEEDYWGQGTQVTVSS”, the “polyreactivity (PSR sort gate)” value is “low polyreactivity”.

Consider “QVQLVESGGGLVQAGGSLRLSCAASGSTFYYYAMGWYRQAPGKERELVAAINSGGRTNYADSVKGRFTISRDNAKNTVYLQMNSLKPEDTAVYYCAKRTYPYGTYRSVWGYDYWGQGTQVTVSS”, for which the “polyreactivity (PSR sort gate)” value was “low polyreactivity”.

On to “QVQLVESGGGLVQAGGSLRLSCAASGSTFYYYAMGWYRQAPGKERELVAAISVRAGITYYADSVKGRFTISRDNAKNTVYLQMNSLKPEDTAVYYCAKDHWTTSSDEGDYWGQGTQVTVSS”, for which the “polyreactivity (PSR sort gate)” value is “low polyreactivity”.

As to “QVQLVESGGGLVQAGGSLRLSCAASGSTFYYYAMGWYRQAPGKERELVARITWIGGSTYYADSVKGRFTISRDNAKNTVYLQMNSLKPEDTAVYYCAAGWYRRIYGGWGYDYWGQGTQVTVSS”, the “polyreactivity (PSR sort gate)” value was “low polyreactivity”.

“QVQLVESGGGLVQAGGSLRLSCAASGSTFYYYAMGWYRQAPGKERELVAVISWGGGSTYYADSVKGRFTISRDNAKNTVYLQMNSLKPEDTAVYYCAAVYDEYQTTHEYDYWGQGTQVTVSS”: the “polyreactivity (PSR sort gate)” value is recorded as “low polyreactivity”.

Regarding “QVQLVESGGGLVQAGGSLRLSCAASGSTFYYYAMGWYSPAPGKERELVAAISRGGGSTNYADSVKGRFTISRDNAKNTVYLQMNSLKPEDTAVYYCATDYKYYGRPYNYWGQGTQVTVSS”, the “polyreactivity (PSR sort gate)” value is listed as “high polyreactivity”.

For the origin of these results see the nanobody polyreactivity screen of Harvey et al. (2022).
